Where two headings read alike, the source gives them in different places.
Columns and labels:
[1] = target: GAN·GINS complex of Thermococcus kodakarensis, formed on the SPR chip from the purified recombinant proteins (Thermococcus kodakarensis); experiment: SPR
[2] = target: GAN·GINS complex of Thermococcus kodakarensis, formed on the SPR chip from the purified recombinant proteins (Thermococcus kodakarensis); experiment: SPR; remark: listed apart in the source

MCM3 (minichromosome maintenance helicase) of Thermococcus kodakarensis, homohexamer, recombinant (enzyme)
Kd [1]: 180 nM
Kd [2]: 190 nM

— article PMC5737688
